Experimental data published in article doi:10.1101/2022.04.29.489987 (bioRxiv, 2022).

T1: TRIB2(53–343) (human, UniProt Q92519 53-343)
T1 sequence (looked up): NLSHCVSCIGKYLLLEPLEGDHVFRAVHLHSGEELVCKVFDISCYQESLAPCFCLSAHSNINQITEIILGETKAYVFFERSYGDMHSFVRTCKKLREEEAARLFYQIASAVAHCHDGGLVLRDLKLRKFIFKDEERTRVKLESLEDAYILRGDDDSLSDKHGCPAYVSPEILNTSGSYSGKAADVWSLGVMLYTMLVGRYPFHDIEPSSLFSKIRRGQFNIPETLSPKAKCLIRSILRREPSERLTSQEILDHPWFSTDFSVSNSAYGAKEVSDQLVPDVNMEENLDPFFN

T2: TRIB2(2–343) (human, UniProt Q92519 2-343)
T2 sequence (looked up): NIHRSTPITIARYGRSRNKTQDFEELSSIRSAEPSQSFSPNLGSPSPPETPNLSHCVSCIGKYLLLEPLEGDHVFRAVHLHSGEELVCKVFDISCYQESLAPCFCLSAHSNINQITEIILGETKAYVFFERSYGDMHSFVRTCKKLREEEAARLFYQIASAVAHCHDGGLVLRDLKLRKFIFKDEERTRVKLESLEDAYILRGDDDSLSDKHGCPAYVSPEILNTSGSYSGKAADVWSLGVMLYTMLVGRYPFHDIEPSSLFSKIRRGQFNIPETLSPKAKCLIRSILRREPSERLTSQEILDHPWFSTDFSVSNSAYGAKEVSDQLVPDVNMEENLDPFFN

B1: Nb4.103 (VHH)
VHH: QVQLQESGGGLVQAGGSLRLSCAASGNISAQAYMGWYRQAPGKERELVAGISYGATTYYADSVKGRFTISRDNAKNTVYLQMNSLKPEDTAVYYCAVISAGGGESIGYHFYWGQGTQVTVSS
B2: Nb4.105 (VHH)
VHH: QVQLQESGGGLVQAGGSLRLSCAASGNIFDNDPMGWYRQAPGKERELVAAIAYGATTYYADSVKGRFTISRDNAKNTVYLQMNSLKPEDTAVYYCAAYGIDDSPKVYSLRYWGQGTQVTVSS
B3: biotinylated Nb4.101 (Nb-Avi) (VHH)
VHH: QVQLQESGGGLVQAGGSLRLSCAASGNISDYLYMGWYRQAPGKERELVAGISYGANTYYADSVKGRFTISRDNAKNTVYLQMNSLKPEDTAVYYCAVFDASRTPILTYWGQGTQVTVSS
modifications: biotin on the Avi-tag
B4: biotinylated Nb4.103 (Nb-Avi) (VHH)
VHH: B1 VHH
modifications: biotin on the Avi-tag
B5: biotinylated Nb4.105 (Nb-Avi) (VHH)
VHH: B2 VHH
modifications: biotin on the Avi-tag
B6: Nb4.101 (VHH)
VHH: B3 VHH

Tests used:
[1] = target: TRIB2-Nb4.103 complex (human) (UniProt Q92519); assay: ITC
[2] = target: T1, TRIB2(53–343); assay: ITC
[3] = target: T1, TRIB2(53–343); assay: SEC-SAXS
[4] = target: T2, TRIB2(2–343); assay: ELISA
[5] = target: T1, TRIB2(53–343); assay: SEC-SAXS; remark: listed apart in the source

Molecule	Kd [2]	stoichiometry N [2]	binding result [4]	also measured
MBP-C/EBPa (from UniProt P49715 1-358) (domain or fragment)	9000 nM	–	–	fold decrease in affinity against TRIB2 alone [1]: 3 fold
B1	27 nM	~0.5	–	stoichiometry N [3]: 2 TRIB2 per nanobody
B2	54 nM	1	–	–
B3	–	–	binds	–
B4	–	–	binds	–
B5	–	–	binds	–
B6	57 nM	~0.5	–	stoichiometry N [5]: 1 TRIB2 per nanobody
